Reference: patent publication US20210347914A1 (BANYAN BIOMARKERS, published 2021)
Numbering of substitutions follows the chain as printed.

B1: GFAP-11 (antibody, V domains shown)
VH: QIQLVQSGPELKKPGETVKISCKASGYTFTNYGMNWVKQAPGEGLKWMGWINTNIGEPTYAEEFKGRFAFSLEASASTAYLQINNLKNEDTATYFCARWKNYGYFDYWGQGTTLTVSS
VL: QIVLTQSPAIMSASLGERVTMTCTASSSVSSSYLHWYQQKPGSSPKLWIYSTSNLASGVPARFSGSGSGTSYSLTISSLEAEDAATYYCHQYHRSPYTFGGGTKLEIK
notes: also called mouse anti-GFAP antibody GFAP-11
B2: GFAP-12 (antibody, V domains shown)
VH: QVQLQQSGAELMKPGASVKISCKATGYTFSNYWIEWVKQRPGHGLEWIGEILPGSGSTNYNEKFKGKATFTADTSSNTAYMQLSSLTSEDSAVYYCAIYYGNYAGAMDYWGQGTSVTVSS
VL: DIQMTQSPASLSASVGETVTITCRASENIYSYLAWYQQKQGKSPQLLVYNAKTLAEGVPSRFSGSGSGTQFSLKINSLQPEDFGSYYCQLHYGTPYTFGSGTKLEIK
notes: also called mouse anti-GFAP antibody GFAP-12
B3: GFAP-13 (antibody, V domains shown)
VH: EVLLQQSGPELVKPGASVKMSCKTSGYTFANYIMHWVKQTPGQGLEWIGFINPYNDYTEYNEKFKGKATLTSDKSSSTAYMEFSGLTSEDSAVYYCSTATFAYWGQGTLVTVSA
VL: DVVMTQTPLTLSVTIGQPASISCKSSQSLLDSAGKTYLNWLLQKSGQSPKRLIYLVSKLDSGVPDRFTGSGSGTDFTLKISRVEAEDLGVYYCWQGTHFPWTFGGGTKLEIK
notes: also called mouse anti-GFAP antibody GFAP-13
B4: GFAP-14 (antibody, V domains shown)
VH: DVQLVESGGGSVQPGGSRKLSCAASGFTFSSFGMHWVRQAPEKGLEWVAYISSDSNTVYYADTVKGRFTISRDNPKNTLFLQMTSLRSEDTAMYYCARYAMDYWGQGTSVTVSS
VL: QIVLTQSPALMSASPGEKVTMTCSASSSVSYMYWYQQKPRSSPKPWIYLTSNLASGVPARFSGSGSGTSYSLTISSMEAEDAATYYCQQWSSNPPTFGAGTKLELK
notes: also called mouse anti-GFAP antibody GFAP-14
B5: GFAP-15 (antibody, V domains shown)
VH: DVQLVESGGGLLEPGGSRKLSCAASGFTFSSFGMHWVRQAPEKGLEWVAYISSGSRTIFYADTVKGRFTISRDNPKNTLFLQMTSLRSGDTAMYYCVRGGYGSSFDYWGQGTTLTVSS
VL: DVVMTQTPLSLPVSLGDQASISCRSSQSLVYSNGNIYLHWYLQKPGQSPKLLIYKVSNRFSGVPDRFSGSGSGTDFTLKISRVEAEDLGVYFCSQSTHVPYTFGGGTKLEIK
notes: also called mouse anti-GFAP antibody GFAP-15
B6: GFAP-16 (antibody, V domains shown)
VH: QVQLQQSDAELVKPGASVKISCKASGYTFTDHTIHWVKQRPEQGLEWIGYIYPGDGSTKYNEKFKGKATLTADKSSSTVYMQLNSLTSEDSAVYFCARPAPYWNFDVWGAGTTVTVSS
VL: DIQMTQSPSSLSASLGGKVTITCKASQDIKKNIAWYQHKPGKGPRLLIWYTSTLQPGIPSRFSGSGSGRDYSFSISNLEPEDIATYYCLQYDHLRTFGGGTKLEIK
notes: also called mouse anti-GFAP antibody GFAP-16
B7: GFAP-17 (antibody, V domains shown)
VH: EVKLEESGGGLVQPGGSMKLSCVASGFTFSYYWMSWVRQSPEKGLEWIAEIRLKSNIYATHYAASVKGRFTISRDDSKSSVYLQMNNLRAEDTGIYFCTRFGTGAMDYWGQGTSVTVSS
VL: DIVMSQSPSSLAVSVGEKVTMSCKSSQSLLYRTNQKNYLAWYQQKPGQSPKLLIYWASSRESGVPDRFSGSGSGTDFTLTISSVKAEDLAVYYCQQYYSYPWTFGGGTKLEIK
notes: also called mouse anti-GFAP antibody GFAP-17
B8: GFAP-18 (antibody, V domains shown)
VH: EVILVESGGGLVKPGGSLKVSCAVSGFTFSNFAMSWVRQTPEKRLEWVASISSGGTTYYPDNVKGRFTISRDNARNIMYLQMSSLRSEDTAMYFCARGGLHYFGYWGQGTTLTVSS
VL: DIVMTQSHKFMSTSVGDRVSITCKASQDVNTAVAWYQQKPGQSLKLLIYSASYRYIGVPDRFTGSGSGTDFTFTINSVQAEDLAVYYCHQYYSTPLTFGTGTKLELK
notes: also called mouse anti-GFAP antibody GFAP-18
B9: GFAP-19 (antibody, V domains shown)
VH: EVQLVESGGGLVKPGGSPKLSCAASGFAFSSYDMSWVRQTPEKRLEWVAYISSGGGSTYYPDTMKGRFTISRDNAKNTLYLQMSSLKSEDTAMYYCARHYGTYLYYLDYWGQGTTLTVSS
VL: DIVLTQSPATLSVTPGDRVSLSCRASQNISDFLHWYQQKSHESPRLLIKYASQSISGIPSRFSGSGSGSDFTLSINSVEPEDVGVYYCQNGHSFPPTFGGGTKLEIK
notes: also called mouse anti-GFAP antibody GFAP-19
B10: GFAP-1 (antibody, V domains shown)
VH: EVHLQQSGTVLARPGASVKMSCKASGYSFTSYWMHWVKQRPGQGLEWIGAFYPENSDTNYNQKFKGKARLTAVTSANTAYMELNSLTNEDSAVYYCTRPLLFSAYFDFWGQGTTLTVSS
VL: DVLMTQTPLSLPVSLGDQASISCRSSQSIVHSYGNTYLEWYLQKPGLSPKLLIYKVSNRFSGVPDRFSGSGSGTDFTLTISRVEAEDLGVYYCFQGSHVPYTFGGGTKLEIK
notes: also called mouse anti-GFAP antibody GFAP-1
B11: GFAP-2 (antibody, V domains shown)
VH: DVQLVESGGGLVQPGGSRKLSCAASGFTFSSFGMHWVRQAPEKGLEWVAYISSGSSIIYYADTVKGRFTISRDNPKNTLFLQMTSLRSEDTAMYYCTGSDWGSFAYWGQGTLVTVSA
VL: B5 VL with I36T, S61F
notes: also called mouse anti-GFAP antibody GFAP-2
B12: GFAP-3 (antibody, V domains shown)
VH: EVKLEESGGGLVQPGGSMKLSCVASGFTFTNYWMSWVRQSPEKGLEWVAQIRLKSDNYATHYAESVKGRFTISRDDSKSSVYLQMNNLRAEDTGIYYCTGGEFLSWFAYWGQGTLVTVSA
VL: DIVMSQSPSSLAVSAGEKVTMSCKSSQSLFNSRTRKNYLAWYQQKPGQSPKLLIYWASTRESGVPDRFTGSGSGTDFTLTISSVQAEDLAVYYCKQSYYLYTFGSGTKLEIK
notes: also called mouse anti-GFAP antibody GFAP-3
B13: GFAP-7 (antibody, V domains shown)
VH: EVQLLQSGTVLARPGASVKMSCKASGYSFTSYWMHWIKQRPGQGLEWIGAIHPGNRDTSYNQKFKDKAKLTAVTSASTAYMELSSLTNEDSAVYFCTREDYWGQGTTLTVSS
VL: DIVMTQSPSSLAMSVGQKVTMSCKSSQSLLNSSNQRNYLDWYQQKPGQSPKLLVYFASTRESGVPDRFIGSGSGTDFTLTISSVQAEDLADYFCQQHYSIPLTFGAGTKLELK
notes: Same variable domains as GFAP-8; also called mouse anti-GFAP antibody GFAP-7
B14: GFAP-4 (antibody, V domains shown)
VH: B13 VH
VL: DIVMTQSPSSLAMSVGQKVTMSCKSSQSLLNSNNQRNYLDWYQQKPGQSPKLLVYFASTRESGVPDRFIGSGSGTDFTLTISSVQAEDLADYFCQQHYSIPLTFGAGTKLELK
notes: also called mouse anti-GFAP antibody GFAP-4
B15: GFAP-5 (antibody, V domains shown)
VH: EVQLVESGGGLVKPGGSLKLSCAASGFTFSAYGMHWVRQAPEKGLEWIAYISSGSSTIYYADTVKGRFTISRDNAKNTLFLQMTSLRSEDTAMYYCASSYALDYWGQGTSVTVSS
VL: B5 VL with I36T, G105S
notes: also called mouse anti-GFAP antibody GFAP-5
B16: GFAP-6 (antibody, V domains shown)
VH: EVQLQQSGAEFVKPGASVKLSCTASGFNIKDTDMHWVRQRPEQGLESIGLIDPAIGNTKYDPKFQGKATITADTSSNAAYLQLSSLTSEDTAVYYCARSDRYLAWFAYWGQGTLVTVSA
VL: B9 VL with L4M, N28S, E42G, A51S, S93T, P96Y
notes: also called mouse anti-GFAP antibody GFAP-6; HRP-labeled anti-GFAP antibody
B17: GFAP-8 (antibody, V domains shown)
VH: B13 VH
VL: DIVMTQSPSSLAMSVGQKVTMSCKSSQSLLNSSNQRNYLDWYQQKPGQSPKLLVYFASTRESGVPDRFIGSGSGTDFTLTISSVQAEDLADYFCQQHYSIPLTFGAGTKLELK
notes: Same variable domains as GFAP-7; also called mouse anti-GFAP antibody GFAP-8
B18: GFAP-9 (antibody, V domains shown)
VH: DVQLQESGPGLVKPSQSLSLTCSVTGYSITSGFYWSWIRQFPGNKLEWMGYISYDGSNNYNPSLKNRISITRDTSKNQFFLKLNSVTTEDTATYYCARAYGYDGAWFAYWGQGTLVTVSA
VL: DIVMTQSQKFMSTSVGDRVSITCKASQNVRTAVAWYQQKPGQSPKALIYLASNRHTGVPDRFTGSGSGTDFTLTISNVQSEDLADYFCLQHWNNPYTFGGGTKLEIK
notes: also called mouse anti-GFAP antibody GFAP-9
B19: GFAP-10 (antibody, V domains shown)
VH: EVKLVESGGGLVKPGGSLKLSCAASGFTFSYYAMSWVRQTPEKRLEWVASISSGGTTYHPDSVKGRFTISRDNARNILYLQMSSLRSEDTAMYYCARGGHWYFDVWGAGTTVTVSS
VL: QIVLTQSPAIMSASPGEKVTMTCSASSSVSYMHWYQQKSGTSPKRWIYDTSKLASGVPARFSGSGSGTSYSLTISSMEAEDAATYYCQQWSTNPLTFGAGTKLDLK
notes: also called mouse anti-GFAP antibody GFAP-10

target: T1, Polyhistidine-tagged recombinant human GFAP expressed from E. coli (human, UniProt P14136 1-432); assay: BLI (Octet QKe); His-tagged GFAP on anti-Penta-HIS sensor, antibody in solution
T1 construct: also called His-tagged GFAP; not shown: polyhistidine tag
Method: The rates of association (kₒₙ) and dissociation (koff) of the anti-GFAP antibodies were determined by bio-layer interferometry using an Octet QK^e instrument according to the manufacturer's instructions (ForteBio). See Tobias et al., Biomolecular Binding Kinetic Assays in the Octet Platform, Application Note 14, ForteBio, Div. of Pall Life Sciences, 2013. Polyhistidine-tagged recombinant human GFAP expressed from E. coli was used as the antigen. The antigen was bound at a concentration of 8.3 μg/ml to an anti-Penta-HIS(HIS1K) capture biosensor containing an anti-histidine antibody (ForteBio) for use with the Octet QK^e instrument.

T1 sequence (P14136 whole entry): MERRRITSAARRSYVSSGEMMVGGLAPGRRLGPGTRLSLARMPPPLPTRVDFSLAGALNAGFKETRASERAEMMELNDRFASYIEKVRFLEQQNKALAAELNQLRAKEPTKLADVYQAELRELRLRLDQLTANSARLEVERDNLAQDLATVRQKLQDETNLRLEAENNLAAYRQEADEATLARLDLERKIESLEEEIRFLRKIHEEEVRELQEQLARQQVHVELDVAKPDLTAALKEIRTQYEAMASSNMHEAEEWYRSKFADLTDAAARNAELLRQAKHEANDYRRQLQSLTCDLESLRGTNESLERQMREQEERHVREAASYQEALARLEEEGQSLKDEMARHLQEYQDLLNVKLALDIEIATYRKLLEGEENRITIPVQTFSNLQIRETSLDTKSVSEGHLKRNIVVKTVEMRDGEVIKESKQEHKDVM

Kd [nM]	koff [s⁻¹]	kon [M⁻¹ s⁻¹]	Binder
0.396	0.000125	315000	B1
13.3	0.00024	18000	B2
0.6	0.000194	324000	B3
0.28	8.4e-05	299000	B4
0.202	0.000231	1.15e+06	B5
0.273	4.7e-05	173000	B6
0.208	1.8e-05	86600	B7
0.0737	2.5e-05	344000	B8
0.423	6.4e-05	151000	B9
0.0107	1.7e-06	162000	B10
0.0557	3.3e-05	593000	B11
12	0.000698	58000	B12
0.856	5.8e-05	67800	B13
2.93	0.000158	53700	B14
5.36	0.000107	20000	B15
1.07	0.000124	116000	B16
1.11	0.000133	120000	B17
18	0.000701	39000	B18
< 0.001	1e-07	53300	B19
